# Laboratory results taken from patent US9389219B2, “Methods for screening inhibitors of tumor associated protein aggregation” (Vrije Universiteit Brussel, priority 2011, dated 2016).
# Entries after “also recorded” stand apart in the source; their conditions may differ. Read-outs that look alike come from different tables or passages of the source. Where a SMILES comes first, the peptide text is derived from it. The star is where a group is joined. Cbz = O=C(OCc1ccccc1)*
# Key:
# [1] = tested on: mutant p53 inclusions in SaOS-2 cells; test: Nocodazole treatment of transfected SaOS-2 cells, immunofluorescence of aggresomal inclusions; type: cell-based, human
# Method: To further investigate the aggresomal nature of the observed inclusions, several strategies were adopted. (i) Since the formation of cytoplasmic inclusions in aggresomes is an active process that depends on cytoskeletal integrity,^15 transfected cells were treated with nocodazole, a small chemical that disrupts microtubule assembly. […] (ii) The oligomerization state of p53 in SaOS-2 cells by Blue-Native PAGE (BN-PAGE) and Western blot analysis was also assessed, after cell lysis with a mild detergent (CHAPS). […] In denaturing but non-reducing PAGE, the oligomers and aggregates were dissociated into monomers, and all mutants were expressed at similar levels (FIG. 2, panel c).
# Since co-aggregation of proteins depends strictly on sequence similarity rather than hydrophobicity,^27 mutant p53 might also be able to induce co-aggregation and inactivation of p63 and p73. To investigate this hypothesis, mutant p53 and the transactivation domain (TA) of p63 or p73 (TAp63α/TAp73α) were co-expressed in SaOS-2 cells. […]
# (§1) In the degradation stability test, protein synthesis was blocked by 60 μg/mL cycloheximide 24 hours after transfection, and cells were lysed 0, 3, 6, 12, 24 and 48 hours after the addition of cycloheximide. […] Cells were analyzed by immunofluorescence after 24 hours.
# [2] = tested on: mutant p53; test: BN-PAGE of p53 mutants over-expressed in SaOS-2 cells with MG-132; type: cell-based, human; conditions: I254R double mutants
# Method: SaOS-2 or Hela cells were rinsed with ice-cold 20 mM Tris-HCl, 150 mM NaCl, pH 7.4 (TBS) and lysed with 18 mM 3-[(3-cholamidopropyl) dimethylammonio]-1-propanesulfonic acid (CHAPS) in TBS with DNase and protease inhibitors for 30 minutes at 21° C. or on ice, respectively. Whole-cell lysate was fractionated by both SDS-PAGE (NuPAGE system, Invitrogen) and Blue-Native PAGE (NativePAGE system, Invitrogen) following the product manuals. For SDS-PAGE, sample was denatured at 95° C. for 10 minutes in the presence of 2% sodium dodecyl sulfate (SDS) and then fractionated by 10% Bis-Tris gels in MES-SDS running buffer (0.1% SDS, 50 mM MES, and 50 mM Tris-Base). For Blue-Native PAGE, cell lysate was added with 20% glycerol and 5 mM Coomassie G-250 before loading onto 3-12% Novex Bis-Tris gradient gels. […] After three times of rinsing with TBS containing 0.1% TWEEN® 20 (TBST), the membrane was stained with horseradish peroxidase (HRP)-conjugated goat anti-mouse IgG (Promega) and visualized with electrochemical luminescence (ECL) system. […]
# as §1
# [3] = tested on: WT p53 in U2OS cells; test: Native page analysis of p53 in treated U2OS cells; type: cell-based, human
# [4] = tested on: WT p53 in U2OS cells; test: Western blot of p53 in U2OS cells treated with chemotherapeutic agents; type: cell-based, human
# [5] = tested on: WT p53 in U2OS cells; test: Immunofluorescent staining for p53 inclusions, InCell Analyzer 2000; type: cell-based, human; conditions: >1000 cells/condition
# Source text: It is becoming increasingly evident that resistance is also seen in cancers harboring wild-type p53, which might be explained by a change of conformation of wt p53 into a “mutant configuration.”^76 Cell lines harboring wt p53 were used and enhanced the expression using previously described chemotherapeutic agents. […] When performing immunofluorescent staining for p53 in U2OS cells, increased accumulation of non-soluble, inclusions of p53 in the cytoplasm was subsequently observed.
# [6] = molecular target: p53β (p53-aggregating sequence ILTIITL) (Homo sapiens, UniProt P04637); test: In vitro peptide-binding assay (PepSpot membrane, biotinylated p53β peptide, streptavidin-HRP); conditions: immobilized peptide, p53β self-interaction = 100,00
# Source text: In order to identify aggregating peptides that match p53β, the human proteome for peptides that have high homology with the p53β peptide were screened. While p53β is unique to p53, in silico analysis identified 56 additional peptides (Table 2) that have no more than two mismatches with p53β. Subsequently, the ability of the selected peptides to interact with p53β using an in vitro peptide-binding assay was empirically determined. Therefore, the 56 selected peptides were spot-synthesized on a cellulose membrane, which was subsequently incubated with biotinylated p53β peptide (FIG. 17, panel b). After washing, the membrane was treated with streptavidine-HRP to detect p53β binding (FIG. 17, panel c). Consistently, the assay successfully identified control peptides including p53β itself, as well as the equivalent sequences from p63 and p73. […] The sequence identity between p53β and their interacting peptide, however, is 75%. Although the function of the proteins from which these 33 interacting peptides stem is often poorly characterized, some interesting cases can be identified. Along with the previously identified p63 and p73, which are inactivated by mutant p53 in cancer, segments were found belonging to Copine-2 (CPNE2), which is a negative regulator of growth factor signaling,^72 methionine synthase (METH), which has been associated to methionine dependence in tumors,^64 CGRF1, a negative regulator of cell proliferation,^67 and caspase-8 (CASP8), a key element for apoptosis, the inactivation of which is associated to chemoresistance and found in a variety of human cancers.^66
# Peptides of selected sequences were spot synthesized on PVDF membrane (PepSpot, JPT). The membranes were blocked by 1% BSA in phosphate-buffered saline for 1 hour at room temperature, and then incubated with biotinylated peptide containing the p53-aggregating sequence for 1 hour. After rinsing with 0.1% TWEEN® 20 in 25 mM MES buffer pH 7.0, membranes were incubated in HRP-labeled Streptavidin (Thermo) and visualized with electrochemical luminescence (ECL) system.
Compound,Binding intensity (normalized) [6],other results
COC(=O)Nc1nc2ccc(C(=O)c3cccs3)cc2[nH]1 [nocodazole],,vimentin network and aggregates of mutant p53 and p63/p73 ([1]; SaOS-2 cells co-expressing aggregating p53 mutants and TAp63α/TAp73α): disrupted the vimentin network and resulted in diffused punctuate aggregates in the cytoplasm; cellular distribution of mutant p53 ([1]; SaOS-2 cells over-expressing mutant p53): shifted from a punctate to a diffuse cytoplasmic staining
CC(C)C[C@@H](C=O)NC(=O)[C@H](CC(C)C)NC(=O)[C@H](CC(C)C)NC(=O)OCc1ccccc1 [MG132] (Cbz-Leu-Leu-Leu-aldehyde),,proteasomal degradation of mutant p53 [2]: inhibited proteasomal degradation of mutant p53; p53 high molecular-weight species (native page) [3]: smear was comparable
N.N.[Cl][Pt][Cl] [cisplatin],,p53 expression level (Western blot) [4]: started to accumulate WT p53; p53 expression level (Western blot) ([4]; listed as Cisplatin): increased expression levels of p53; increase in cytoplasmic aggregates of p53 [5]: greater than three-fold increase; p53 high molecular-weight species (native page) [3]: part of p53 ran as a high molecular weight smear; also recorded: high molecular-weight species of p53
COc1cccc2c1C(=O)c1c(O)c3c(c(O)c1C2=O)C[C@@](O)(C(=O)CO)C[C@@H]3O[C@H]1C[C@H](N)[C@H](O)[C@H](C)O1 [doxorubicin],,p53 expression level (Western blot) [4]: increased expression levels of p53; p53 high molecular-weight species (native page) [3]: high molecular-weight species of p53
ILTISSL (listed as Homo sapiens) [peptide from KV122_HUMAN],"23,80",
ILGKITL (listed as Homo sapiens) [peptide from MP2K4_HUMAN],"16,85",
ILLIITD (listed as Homo sapiens) [peptide from CPNE2_HUMAN],"111,13",
ILTIKEL (listed as Homo sapiens) [peptide from ZN830_HUMAN],"14,09",
DLTIIDL (listed as Homo sapiens) [peptide from MX2_HUMAN],"40,18",
ILSIDTL (listed as Homo sapiens) [peptide from SPEF2_HUMAN],"79,63",
IQTISTL (listed as Homo sapiens) [peptide from SCC4_HUMAN],"7,06",
ILIIVTL (listed as Homo sapiens) [peptide from P63_HUMAN],"92,04",
ITTVITL (listed as Homo sapiens) [peptide from CD041_HUMAN],"5,27",
CC(C)C[C@H](NC(=O)[C@H](Cc1ccccc1)NC(=O)c1cnccn1)B(O)O [Bortezomib],,p53 high molecular-weight species (native page) [3]: smear was comparable
ILTSGTL (listed as Homo sapiens) [peptide from RTEL1_HUMAN],"17,31",
IEVIITL (listed as Homo sapiens) [peptide from CXL11_HUMAN],"8,54",
RRPILTIITLEDGS (listed as Homo sapiens) [reference compound],"30,92",
IYTGITL (listed as Homo sapiens),"32,12",
ILQIISL (listed as Homo sapiens) [peptide from PK3C3_HUMAN],"26,33",
ILTKSTL (listed as Homo sapiens) [peptide from CND2_HUMAN],"17,86",
ILTNTTL (listed as Homo sapiens) [peptide from CC132_HUMAN],"76,96",
ILRQITL (listed as Homo sapiens) [peptide from CD2A1_HUMAN],"14,74",
LLTIETL (listed as Homo sapiens),"26,55",
ALTFITL (listed as Homo sapiens) [peptide from BN3D2_HUMAN],"6,47",
ILDIITS (listed as Homo sapiens) [peptide from ANXA6_HUMAN],"78,87",
TLTISTL (listed as Homo sapiens) [peptide from KV117_HUMAN],"10,18",
IVTIITA (listed as Homo sapiens),"17,21",
ILKQITL (listed as Homo sapiens),"19,84",
ILTKYTL (listed as Homo sapiens) [peptide from NOL11_HUMAN],"33,34",
